Assays:
[1] = Release assay from PEG-DA fluid gel (trans-well, UV/Vis); assay type: physicochemical; conditions: 3% v/v PEG-DA fluid gel (Example 5.3, 500 rpm), into PBS at 37° C., 5 hrs
Description: • Active amounts: […] • Standard concentrations of active in PBS were prepared. • Standards were pipetted into a quartz cuvette (1 mm pathlength). • UV/Vis spectroscopy was used to measure absorbance between 200 and 700 nm wavelength. • Curves were plotted and used to determine standard curves which were used to determine concentrations. • 0.5 ml PBS was added to the well of a 24 well plate. • The PBS was incubated at 37° C. to equilibrate. • 0.1 ml of the fluid gel containing active was placed in a trans-well insert. • The trans-well insert was placed into a well containing PBS. • After a given time period the trans-well insert was removed and placed in a fresh well of PBS. • The release media was then removed and analysed using […] spectroscopy. Concentrations were derived from the standard curves and cumulative release plotted as a function of time.

[2] = system: fibrin gel; assay: Matrix breakdown assay (fibrin gel); assay type: biochemical; conditions: fibrin gel 8.5 mg/ml, 60° C., images at various timepoints
Description: • Add proteinase K (10 mg) to PBS to make a total volume of 1 ml. • Mix well on a vortex mixer until dissolved.
• Add 0.9 ml of 3% v/v PEG-DA fluid gel prepared according to Example 5.3 to an Eppendorf. • To each gel add 0.1 ml of active in PBS. • Mix well using a vortex mixer. • Refrigerate for 24 hours before testing.
• 0.5 ml of fibrin gel (8.5 mg/ml) was formed in the wells of a 24 well plate. • 0.5 ml of PBS was added to each well. • 0.1 ml of fluid gel containing active was added to a trans-well insert and placed above the fibrin gel. • Samples were incubated at 60° C. to activate the proteinase K. • Images were taken at various timepoints and compared to (a) the control wells containing only fibrin gel+PBS; and (b) wells containing fibrin gel+proteinase k (no fluid gel carrier).

B1: proteinase K only: extracellular matrix remodelling agent, a proteinase (protein, UniProt P06873 106-384, looked up)
Proteinase K: AAQTNAPWGLARISSTSPGTSTYYYDESAGQGSCVYVIDTGIEASHPEFEGRAQMVKTYYYSSRDGNGHGTHCAGTVGSRTYGVAKKTQLFGVKVLDDNGSGQYSTIIAGMDFVASDKNNRNCPKGVVASLSLGGGYSSSVNSAAARLQSSGVMVAVAAGNNNADARNYSPASEPSVCTVGASDRYDRRSSFSNYGSVLDIFGPGTSILSTWIGGSTRSISGTSMATPHVAGLAAYLMTLGKTTAASACRYIADTANKGDLSNIPFGTVNLLAYNNYQA
In the case of B1, the “release of active agent from fluid gel” value [1] is reported as “able to release” and the “fibrin gel break down” value [2] is reported as “faster”.
